Measurements published in patent publication US20040022777A1, “Fragments and antagonists of heat shock protein 60” (priority 1999, published 2004).

Assays:
Assay type in all cases: cell-based, mouse
[1] = test system: bone marrow-derived macrophages of C3H/HeJ mice (mutant Toll-like receptor 4); experiment: NO (nitrite) production by bone marrow-derived macrophages with mutant Tlr4 (Griess reaction)
[2] = test system: bone marrow-derived macrophages of C57BL/6 and C3H/HeN mice; experiment: TNFα production by bone marrow-derived macrophages with wild-type Tlr4 (sandwich ELISA)
[3] = test system: bone marrow-derived macrophages of C3H/HeJ mice (mutant Toll-like receptor 4); experiment: TNFα production by bone marrow-derived macrophages with mutant Tlr4 (sandwich ELISA)
[4] = test system: bone marrow-derived macrophages of C57BL/6 and C3H/HeN mice; experiment: NO (nitrite) production by bone marrow-derived macrophages with wild-type Tlr4 (Griess reaction); details: 24 h

B1: hsp60: Recombinant human hsp60 obtained from StressGen Biotechnologies (protein)
chain: AKDVKFGADARALMLQGVDLLADAVAVTMGPKGRTVIIEQSWGSPKVTKDGVTVAKSIDLKDKYKNIGAKLVQDVANNTNEEAGDGTTTATVLARSIAKEGFEKISKGANPVEIRRGVMLAVDAVIAELKKQSKPVTTPEEIAQVATISANGDKEIGNIISDAMKKVGRKGVITVKDGKTLNDELEIIEGMKFDRGYISPYFINTSKGQKCEFQDAYVLLSEKKISSIQSIVPALEIANAHRKPLVIIAEDVDGEALSTLVLNRLKVGLQVVAVKAPGFGDNRKNQLKDMAIATGGAVFGEEGLTLNLEDVQPHDLGKVGEVIVTKDDAMLLKGKGDKAQIEKRIQEIIEQLDVTTSEYEKEKLNERLAKLSDGVAVLKVGGTSDVEVNEKKDRVTDALNATRAAVEEGIVLGGGCALLRCIPALDSLTPANEDQKIGIEIIKRTLKIPAMTIAKNAGVEGSLIVEKIMQSSSEVGYDAMAGDFVNMVEKGIIDPTKVVRTALLDAAGVASLLTTAEVVVTEIPKEEKDPGMGAMGGMGGGMGGGMF
- NO production ([1]; C3H/HeJ (Tlr4 defective) macrophages, LPS 10 ng/ml, hsp60 10 μg/ml, 24 h): complete lack of a nitric oxide response
- NO production, time course ([1]; C3H/HeJ macrophages, 10 μg/ml hsp60, up to 72 h): no indication of NO production
- NO response on increasing the hsp60 concentration tenfold ([1]; Tlr4 defective macrophages, 24 h): completely refractory
- time of peak levels of secreted TNFα ([2]; C3H/HeN macrophages, 10 μg/ml hsp60): 6 to 12 h
- TNFα secretion ([2]; C57BL/6 and C3H/HeN macrophages, LPS 10 ng/ml, hsp60 10 μg/ml, 6 h): rapid secretion of large amounts of TNFα
- TNFα response ([3]; C3H/HeJ macrophages, LPS 10 ng/ml, hsp60 10 μg/ml, oligonucleotides 30 μg/ml, 6 h): no response
- TNFα response, dose dependence ([3]; C3H/HeJ macrophages, even at ten times higher hsp60 levels, 6 h): no such response
- TNFα production, time course ([3]; Tlr4 defective macrophages, 10 μg/ml hsp60, observation period of 72 h): absent
- hsp60 concentration required for eliciting NO [4]: 3 µg/mL
- nitrite levels on increasing the hsp60 concentration tenfold ([4]; C3H/HeN macrophages): about five times higher nitrite levels
- NO production ([4]; C57BL/6 and C3H/HeN macrophages, LPS 10 ng/ml, hsp60 10 μg/ml): same outcome
